According to publication PMC11407943, “Cdc14 phosphatases use an intramolecular pseudosubstrate motif to stimulate and regulate catalysis” (The Journal of Biological Chemistry, 2024):

B1: ScCdc14^1-449 (Saccharomyces cerevisiae S288C) (protein)
chain: MRRSVYLDNTIEFLRGRVYLGAYDYTPEDTDELVFFTVEDAIFYNSFHLDFGPMNIGHLYRFAVIFHEILNDPENANKAVVFYSSASTRQRANAACMLCCYMILVQAWTPHQVLQPLAQVDPPFMPFRDAGYSNADFEITIQDVVYGVWRAKEKGLIDLHSFNLESYEKYEHVEFGDFNVLTPDFIAFASPQEDHPKGYLATKSSHLNQPFKSVLNFFANNNVQLVVRLNSHLYNKKHFEDIGIQHLDLIFEDGTCPDLSIVKNFVGAAETIIKRGGKIAVHCKAGLGRTGCLIGAHLIYTYGFTANECIGFLRFIRPGMVVGPQQHWLYLHQNDFREWKYTTRISLKPSEAIGGLYPLISLEEYRLQKKKLKDDKRVAQNNIEGELRDLTMTPPSNGHGALSARNSSQPSTANNGSNSFKSSAVPQTSPGQPRKGQNGSNTIEDINNN
B2: ScCdc14^S429E (Saccharomyces cerevisiae S288C; S429E) (protein)
chain: MRRSVYLDNTIEFLRGRVYLGAYDYTPEDTDELVFFTVEDAIFYNSFHLDFGPMNIGHLYRFAVIFHEILNDPENANKAVVFYSSASTRQRANAACMLCCYMILVQAWTPHQVLQPLAQVDPPFMPFRDAGYSNADFEITIQDVVYGVWRAKEKGLIDLHSFNLESYEKYEHVEFGDFNVLTPDFIAFASPQEDHPKGYLATKSSHLNQPFKSVLNFFANNNVQLVVRLNSHLYNKKHFEDIGIQHLDLIFEDGTCPDLSIVKNFVGAAETIIKRGGKIAVHCKAGLGRTGCLIGAHLIYTYGFTANECIGFLRFIRPGMVVGPQQHWLYLHQNDFREWKYTTRISLKPSEAIGGLYPLISLEEYRLQKKKLKDDKRVAQNNIEGELRDLTMTPPSNGHGALSARNSSQPSTANNGSNSFKSSAVPQTEPGQPRKGQNGSNTIEDINNN
B3: ScCdc14^Q432E (Saccharomyces cerevisiae S288C; Q432E) (protein)
chain: MRRSVYLDNTIEFLRGRVYLGAYDYTPEDTDELVFFTVEDAIFYNSFHLDFGPMNIGHLYRFAVIFHEILNDPENANKAVVFYSSASTRQRANAACMLCCYMILVQAWTPHQVLQPLAQVDPPFMPFRDAGYSNADFEITIQDVVYGVWRAKEKGLIDLHSFNLESYEKYEHVEFGDFNVLTPDFIAFASPQEDHPKGYLATKSSHLNQPFKSVLNFFANNNVQLVVRLNSHLYNKKHFEDIGIQHLDLIFEDGTCPDLSIVKNFVGAAETIIKRGGKIAVHCKAGLGRTGCLIGAHLIYTYGFTANECIGFLRFIRPGMVVGPQQHWLYLHQNDFREWKYTTRISLKPSEAIGGLYPLISLEEYRLQKKKLKDDKRVAQNNIEGELRDLTMTPPSNGHGALSARNSSQPSTANNGSNSFKSSAVPQTSPGEPRKGQNGSNTIEDINNN
B4: ScCdc14^P433A/K435A (Saccharomyces cerevisiae S288C; K435A/P433A) (protein)
chain: MRRSVYLDNTIEFLRGRVYLGAYDYTPEDTDELVFFTVEDAIFYNSFHLDFGPMNIGHLYRFAVIFHEILNDPENANKAVVFYSSASTRQRANAACMLCCYMILVQAWTPHQVLQPLAQVDPPFMPFRDAGYSNADFEITIQDVVYGVWRAKEKGLIDLHSFNLESYEKYEHVEFGDFNVLTPDFIAFASPQEDHPKGYLATKSSHLNQPFKSVLNFFANNNVQLVVRLNSHLYNKKHFEDIGIQHLDLIFEDGTCPDLSIVKNFVGAAETIIKRGGKIAVHCKAGLGRTGCLIGAHLIYTYGFTANECIGFLRFIRPGMVVGPQQHWLYLHQNDFREWKYTTRISLKPSEAIGGLYPLISLEEYRLQKKKLKDDKRVAQNNIEGELRDLTMTPPSNGHGALSARNSSQPSTANNGSNSFKSSAVPQTSPGQARAGQNGSNTIEDINNN
B5: ScCdc14^Q432N (Saccharomyces cerevisiae S288C; Q432N) (protein)
chain: MRRSVYLDNTIEFLRGRVYLGAYDYTPEDTDELVFFTVEDAIFYNSFHLDFGPMNIGHLYRFAVIFHEILNDPENANKAVVFYSSASTRQRANAACMLCCYMILVQAWTPHQVLQPLAQVDPPFMPFRDAGYSNADFEITIQDVVYGVWRAKEKGLIDLHSFNLESYEKYEHVEFGDFNVLTPDFIAFASPQEDHPKGYLATKSSHLNQPFKSVLNFFANNNVQLVVRLNSHLYNKKHFEDIGIQHLDLIFEDGTCPDLSIVKNFVGAAETIIKRGGKIAVHCKAGLGRTGCLIGAHLIYTYGFTANECIGFLRFIRPGMVVGPQQHWLYLHQNDFREWKYTTRISLKPSEAIGGLYPLISLEEYRLQKKKLKDDKRVAQNNIEGELRDLTMTPPSNGHGALSARNSSQPSTANNGSNSFKSSAVPQTSPGNPRKGQNGSNTIEDINNN
B6: ScCdc14^Q432A (Saccharomyces cerevisiae S288C; Q432A) (protein)
chain: MRRSVYLDNTIEFLRGRVYLGAYDYTPEDTDELVFFTVEDAIFYNSFHLDFGPMNIGHLYRFAVIFHEILNDPENANKAVVFYSSASTRQRANAACMLCCYMILVQAWTPHQVLQPLAQVDPPFMPFRDAGYSNADFEITIQDVVYGVWRAKEKGLIDLHSFNLESYEKYEHVEFGDFNVLTPDFIAFASPQEDHPKGYLATKSSHLNQPFKSVLNFFANNNVQLVVRLNSHLYNKKHFEDIGIQHLDLIFEDGTCPDLSIVKNFVGAAETIIKRGGKIAVHCKAGLGRTGCLIGAHLIYTYGFTANECIGFLRFIRPGMVVGPQQHWLYLHQNDFREWKYTTRISLKPSEAIGGLYPLISLEEYRLQKKKLKDDKRVAQNNIEGELRDLTMTPPSNGHGALSARNSSQPSTANNGSNSFKSSAVPQTSPGAPRKGQNGSNTIEDINNN
B7: ScCdc14^1-374 (Saccharomyces cerevisiae S288C) (protein)
chain: MRRSVYLDNTIEFLRGRVYLGAYDYTPEDTDELVFFTVEDAIFYNSFHLDFGPMNIGHLYRFAVIFHEILNDPENANKAVVFYSSASTRQRANAACMLCCYMILVQAWTPHQVLQPLAQVDPPFMPFRDAGYSNADFEITIQDVVYGVWRAKEKGLIDLHSFNLESYEKYEHVEFGDFNVLTPDFIAFASPQEDHPKGYLATKSSHLNQPFKSVLNFFANNNVQLVVRLNSHLYNKKHFEDIGIQHLDLIFEDGTCPDLSIVKNFVGAAETIIKRGGKIAVHCKAGLGRTGCLIGAHLIYTYGFTANECIGFLRFIRPGMVVGPQQHWLYLHQNDFREWKYTTRISLKPSEAIGGLYPLISLEEYRLQKKKLKD
B8: hCdc14B^1-411 (Homo sapiens) (protein)
chain: DRLCFAILYSRPKSASNVHYFSIDNELEYENFYADFGPLNLAMVYRYCCKINKKLKSITMLRKKIVHFTGSDQRKQANAAFLVGCYMVIYLGRTPEEAYRILIFGETSYIPFRDAAYGSCNFYITLLDCFHAVKKAMQYGFLNFNSFNLDEYEHYEKAENGDLNWIIPDRFIAFCGPHSRARLESGYHQHSPETYIQYFKNHNVTTIIRLNKRMYDAKRFTDAGFDHHDLFFADGSTPTDAIVKEFLDICENAEGAIAVHCKAGLGRTGTLIACYIMKHYRMTAAETIAWVRICRPGSVIGPQQQFLVMKQTNLWLEGDYFRQKLKGQENGQHRAAFSKLLSGVDDISINGVENQDQQEPEPYSDDDEINGVTQGDRLRALKSRRQSKTNAIPLT
notes: codons 1-411; N-terminal GST; expressed in E. coli
B9: hCdc14B^Q390A (Homo sapiens; Q390A) (protein)
chain: MSREGAGAALVAEVIKDRLCFAILYSRPKSASNVHYFSIDNELEYENFYADFGPLNLAMVYRYCCKINKKLKSITMLRKKIVHFTGSDQRKQANAAFLVGCYMVIYLGRTPEEAYRILIFGETSYIPFRDAAYGSCNFYITLLDCFHAVKKAMQYGFLNFNSFNLDEYEHYEKAENGDLNWIIPDRFIAFCGPHSRARLESGYHQHSPETYIQYFKNHNVTTIIRLNKRMYDAKRFTDAGFDHHDLFFADGSTPTDAIVKEFLDICENAEGAIAVHCKAGLGRTGTLIACYIMKHYRMTAAETIAWVRICRPGSVIGPQQQFLVMKQTNLWLEGDYFRQKLKGQENGQHRAAFSKLLSGVDDISINGVENQDQQEPEPYSDDDEINGVTAGDRLRALKSRRQSKTNAIPLT
notes: as for B8

Substrate: Cc1cc(=O)oc2c(F)c(OP(=O)(O)O)c(F)cc12
Test: purified protein, by the assay type
Conditions: pH 7.5; 30.0 °C
Description: Data from velocity versus substrate concentration plots were fit with the Michaelis–Menten equation in GraphPad Prism (https://www.graphpad.com/) to determine steady-state kinetic parameters kcat and KM. For trans peptide stimulation assays, DiFMUP was used at a single concentration well above the measured KM for each enzyme. […] (where pS is phosphoSer), were assayed in Cdc14 reaction buffer with Biomol Green (Enzo Life Science) detection of released inorganic phosphate as previously described ([29]). Data were fit with a modified Michaelis–Menten equation including a substrate inhibition term in Prism.
After removing the Cdk1-bound affinity resin, we measured effects on Cdc14 steady-state kinetic parameters with DiFMUP.
Values are means of at least six independent measurements and error bars are SDs.

Compared with B1, B2 is 7.6-fold lower in Km: 25 µM for the first, 3.3 µM for the second.

Substrate: Cc1cc(=O)oc2c(F)c(OP(=O)(O)O)c(F)cc12
Test: not given
Assay type: biochemical
Conditions: pH 7.5; 30.0 °C
Description: Enzym e kcat (sec-1) KM (µM)

First: B1
Second: B3
The Km of the first is 7.6-fold higher: 8.4 µM for the first, 1.11 µM for the second.

B4 and B5 are within 1.5-fold of each other in Km: 1.0 µM for the first, 0.92 µM for the second.

B6 and B7 are within 1.5-fold of each other in Km: 0.72 µM for the first, 0.76 µM for the second.

Going from B8 to B9, the Km falls from 46 µM to 2.88 µM (16-fold).
